# Experimental data from article PMC3953818, “Characterization and regulation of an additional actin-filament-binding site in large isoforms of the stereocilia actin-bundling protein espin” (Journal of Cell Science, 2014).
# Where two headings read alike, the source gives them in different places.
# T1: GST–(340-854) human espin 1 fragment missing the V462-K487 xAB-containing peptide (human, UniProt B1AK53 340-854, missing the V462-K487 xAB-containing peptide (ΔxAB))
# T1 construct: human espin 1, residues D340-Y854 with V462-K487 deleted; also called ΔxAB; source: E. coli BL21 Star (DE3), purified (glutathione-Sepharose 4B), loaded on glutathione beads
# T1 sequence (looked up): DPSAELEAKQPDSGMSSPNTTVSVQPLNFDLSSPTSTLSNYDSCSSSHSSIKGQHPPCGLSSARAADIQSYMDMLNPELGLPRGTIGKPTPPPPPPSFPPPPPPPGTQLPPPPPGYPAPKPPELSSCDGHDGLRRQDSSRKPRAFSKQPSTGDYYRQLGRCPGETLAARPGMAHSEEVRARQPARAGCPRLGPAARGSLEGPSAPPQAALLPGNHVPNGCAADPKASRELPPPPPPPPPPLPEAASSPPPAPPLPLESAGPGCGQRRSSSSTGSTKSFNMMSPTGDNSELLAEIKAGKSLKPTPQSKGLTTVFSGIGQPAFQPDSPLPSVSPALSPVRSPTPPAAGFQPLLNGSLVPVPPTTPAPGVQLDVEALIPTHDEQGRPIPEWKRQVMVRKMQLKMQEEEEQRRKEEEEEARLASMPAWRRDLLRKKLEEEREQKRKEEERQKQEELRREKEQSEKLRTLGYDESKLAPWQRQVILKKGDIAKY
# B1: His-tagged ankyrin repeat domain (M1-R339 of human espin 1) (domain or fragment, UniProt B1AK53 1-339, looked up)
# chain: MALEQALQAARQGELDVLRSLHAAGLLGPSLRDPLDALPVHHAARAGKLHCLRFLVEEAALPAAARARNGATPAHDASATGHLACLQWLLSQGGCRVQDKDNSGATVLHLAARFGHPEVVNWLLHHGGGDPTAATDMGALPIHYAAAKGDFPSLRLLVEHYPEGVNAQTKNGATPLYLACQEGHLEVTQYLVQECGADPHARAHDGMTPLHAAAQMGHSPVIVWLVSCTDVSLSEQDKDGATAMHFAASRGHTKVLSWLLLHGGEISADLWGGTPLHDAAENGELECCQILVVNGAELDVRDRDGYTAADLSDFNGHSHCTRYLRTVENLSVEHRVLSR
# notes: human espin 1, ankyrin repeat domain, residues M1-R339; Expressed from ProEX HTa or HTb; also called His–(1-339); His–ankyrin repeat domain; source: E. coli BL21 Star (DE3), purified (Ni-NTA agarose); not shown: His tag, N-terminal, kept
# Key:
# monomeric actin (rabbit) = monomeric actin (rabbit) (UniProt P68135)
# [1] = target: preformed filaments of rabbit skeletal muscle actin (rabbit) (UniProt P68135); test: co-sedimentation; purified GST fusion proteins incubated with preformed filaments of rabbit skeletal muscle actin (0.4 mg/ml) for 60 min at 37°C in 10 mM HEPES, 0.1 M KCl, 1 mM dithiothreitol, 0.5 mM ATP, 1 mM MgCl2, 1 mM NaN3, pH 7.4; 150,000 g for 60 min at 4°C; pellet and supernatant on Coomassie-stained SDS gels
# [2] = target: His-tagged ankyrin repeat domain (M1-R339 of human espin 1) (human) (UniProt B1AK53); test: pull-down; competition: the same pull-down of His–(1-339) on glutathione beads loaded with GST–(340-854), without or with synthetic peptide at 30 µM
# F-actin [3] = target: F-actin (UniProt P68133); settings: cited from earlier work
# F-actin [4] = target: F-actin (UniProt P68133); settings: cited from earlier work; remark: listed apart in the source
# F-actin [5] = target: F-actin (UniProt P68133); settings: cited from earlier work; remark: listed apart in the source
# [6] = target: T1, GST–(340-854) human espin 1 fragment …; test: pull-down; His-tagged ankyrin repeat domain incubated with glutathione-Sepharose beads preloaded with GST or GST–human espin 340–854 fragment in 5 mM HEPES, 10 mM imidazole, 0.1 M KCl, 1 mM dithiothreitol, 3 mM NaN3, pH 7.4, 60 min at 22°C; five washes at 4°C; Coomassie-stained SDS gels; settings: both partners purified
molecule,measurement,setting,value
GST fusion with peptide V130-K155 of rat espin 2B (domain or fragment),"inhibition of the rate of pyrene-actin polymerization relative to the GST control, concentration series up to 5 µM",monomeric actin (rabbit),11%
same,percent of the fusion protein recovered in the high-speed pellet with F-actin,[1],42%
MYO3A tail homology domain I peptide (M3),percent of the His–ankyrin repeat domain still bound to GST–340-854 with 30 µM M3,[2],8%
espin 1 ΔN338 ΔN338 (from UniProt Q63618),Kd,F-actin [3],70 nM
espin 1 339-720 (from UniProt Q63618),Kd,F-actin [4],1000 nM
espin smallest isoform (from UniProt Q63618),Kd,F-actin [5],220 nM
B1,binding result,[6],binds
